doi:10.1101/304022 (bioRxiv, 2018)
Residue numbers refer to the chain shown, from its start.

B1: STIM1 23-213 (luminal domain of human stromal interaction molecule-1), wild type, unmodified (1 mM DTT) (domain or fragment, UniProt Q13586-1 23-213, looked up)
chain: LSHSHSEKATGTSSGANSEESTAAEFCRIDKPLCHSEDEKLSFEAVRNIHKLMDDDANGDVDVEESDEFLREDLNYHDPTVKHSTFHGEDKLISVEDLWKAWKSSEVYNWTVDEVVQWLITYVELPQYEETFRKLQLSGHAMPRLAVTNTTMTGTVLKMTDRSHRQKLQLKALDTVLFGPPLLTRHNHLKD
B2: Cys49Ser/Cys56Ser double mutant STIM1 23-213 (domain or fragment, human, UniProt Q13586-1 23-213, looked up)
chain: B1 chain with C27S, C34S

Biological target: the molecule itself
Assay: dynamic light scattering

Protein | binding result
B1 | binds
B2 | binds
